Drawing on paper PMC6524969, “A nanobody-based molecular toolkit provides new mechanistic insight into clathrin-coat initiation” (eLife, 2019), this text covers binding result and Kd for 4 molecules.

The target of experiment [1] is T1, GST-EPS15 (1-314) (human, UniProt P42566).
T1 construct: stop codon at 315 (S315*) in pGEX-5X-1; Printed molecular weight 60,924.7; also called GST-EPS15 EH1-3; source: E. coli BL21 codon plus RIL, purified (glutathione-Sepharose); not shown: GST, N-terminal, kept
T1 sequence (P42566 1-314): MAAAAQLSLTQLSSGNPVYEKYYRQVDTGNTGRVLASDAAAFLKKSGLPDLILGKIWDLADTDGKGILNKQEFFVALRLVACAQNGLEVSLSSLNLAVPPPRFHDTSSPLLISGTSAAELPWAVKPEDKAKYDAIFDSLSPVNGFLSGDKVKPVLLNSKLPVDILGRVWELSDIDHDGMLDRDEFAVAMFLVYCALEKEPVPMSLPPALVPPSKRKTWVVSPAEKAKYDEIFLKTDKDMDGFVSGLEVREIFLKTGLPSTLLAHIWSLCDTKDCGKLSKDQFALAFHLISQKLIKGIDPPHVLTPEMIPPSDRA
Nature of the experiment: pull-down; GST fusion (50 μg, or increasing amounts) immobilised on glutathione-Sepharose; Nb in clarified E. coli periplasmic extract adjusted to 125 mM sodium chloride; 4°C, 60 min; supernatant and pellet on Coomassie-stained gels. The conditions noted are these: one partner purified.

Experiment [2] has as its target T2, GST-EPS15R (1-365) (Homo sapiens, UniProt Q9UBC2).
T2 construct: Epidermal growth factor receptor substrate 15R (EPS15R, gene EPS15L1), H. sapiens, residues 1-365 (stop T366*), in pGEX-5X-1; also called EPS15R EH1R-3R; source: E. coli BL21 codon plus RIL, purified (glutathione-Sepharose)
The experiment is described as above. Particulars: one partner purified.

Experiment [3] addresses T3, GST-EPS15 (1-109) (Homo sapiens, UniProt P42566).
T3 construct: stop codon L110* in pGEX-5X-1; Printed molecular weight 38,271.3; also called EH1; source: E. coli BL21 codon plus RIL, purified (glutathione-Sepharose); not shown: GST, N-terminal, kept
In words: pull-down; quantitative titration; Nb E_142 fixed at 2 μM, immobilised GST-EPS15 (1-109) 0.5-20 μM or (1-314) 0.25-10 μM; PBS with 100 μg/ml BSA, 4°C, 60 min, 400 μl; Nb band in the supernatant quantified; apparent KD (half-maximal binding). Particulars: both partners purified.

Experiment [4] has as its target T1, GST-EPS15 (1-314). Described as above. Particulars: both partners purified.
In experiment [5] the target is T4, EPS15R in K-562 cell lysate (human (endogenous in K-562), UniProt Q9UBC2).
T4 construct: Epidermal growth factor receptor substrate 15R, endogenous in K-562 cells
T4 sequence (Q9UBC2 whole entry): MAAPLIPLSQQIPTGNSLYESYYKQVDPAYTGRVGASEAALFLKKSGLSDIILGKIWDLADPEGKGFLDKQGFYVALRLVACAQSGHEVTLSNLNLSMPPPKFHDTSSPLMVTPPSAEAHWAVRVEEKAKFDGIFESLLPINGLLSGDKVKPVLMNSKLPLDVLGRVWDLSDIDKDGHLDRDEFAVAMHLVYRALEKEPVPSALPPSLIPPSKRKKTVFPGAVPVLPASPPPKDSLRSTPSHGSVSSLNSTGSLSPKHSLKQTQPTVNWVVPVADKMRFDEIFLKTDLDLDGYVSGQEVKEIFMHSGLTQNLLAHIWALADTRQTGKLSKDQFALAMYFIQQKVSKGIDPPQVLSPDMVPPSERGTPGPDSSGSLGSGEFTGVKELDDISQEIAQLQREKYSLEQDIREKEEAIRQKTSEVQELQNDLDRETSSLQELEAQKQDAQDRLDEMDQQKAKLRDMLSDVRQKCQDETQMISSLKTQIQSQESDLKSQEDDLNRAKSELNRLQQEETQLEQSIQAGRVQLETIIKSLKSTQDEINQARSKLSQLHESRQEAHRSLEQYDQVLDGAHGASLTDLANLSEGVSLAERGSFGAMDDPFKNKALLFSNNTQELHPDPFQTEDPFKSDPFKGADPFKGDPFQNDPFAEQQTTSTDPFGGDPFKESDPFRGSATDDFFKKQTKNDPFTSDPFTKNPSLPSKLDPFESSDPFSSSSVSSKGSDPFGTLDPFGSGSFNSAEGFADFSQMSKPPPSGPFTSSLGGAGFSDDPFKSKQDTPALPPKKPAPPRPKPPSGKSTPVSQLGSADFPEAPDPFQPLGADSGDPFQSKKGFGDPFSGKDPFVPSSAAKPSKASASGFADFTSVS
In words: pull-down; called immunoprecipitation; purified His6-tagged Nb E_142 bound to Ni-NTA-agarose; K-562 cell lysate or rat brain cytosol; immunoblots. The conditions noted are these: one partner purified. Background: A western blot detects proteins with antibodies after separation by electrophoresis.

Experiment [6] deals with T5, native Eps15 in rat brain cytosol (Rattus norvegicus (brain cytosol, …, UniProt A0A8I5YC99)).
T5 construct: Eps15, endogenous in rat brain cytosol; source: endogenous, rat brain cytosol
The description is as above. Particulars: one partner purified.

Experiment [7] addresses T6, endogenous EPS15 in HeLa cells (Homo sapiens, UniProt P42566).
T6 construct: Epidermal growth factor receptor substrate 15, endogenous in HeLa cells, stained with anti-EPS15 antibodies; source: endogenous, HeLa SS6 and HeLa clone #40 cells
In words: immunostaining of cells or tissue; relocalisation in cells: Nb E_142 fusion tethered to endosomes (GFP-FYVE2) or mitochondria (Akap1) in transfected HeLa cells; endogenous EPS15 stained with antibodies, confocal microscopy; controls without the Nb module. The conditions noted are these: partners not purified.

T6 sequence (P42566 whole entry): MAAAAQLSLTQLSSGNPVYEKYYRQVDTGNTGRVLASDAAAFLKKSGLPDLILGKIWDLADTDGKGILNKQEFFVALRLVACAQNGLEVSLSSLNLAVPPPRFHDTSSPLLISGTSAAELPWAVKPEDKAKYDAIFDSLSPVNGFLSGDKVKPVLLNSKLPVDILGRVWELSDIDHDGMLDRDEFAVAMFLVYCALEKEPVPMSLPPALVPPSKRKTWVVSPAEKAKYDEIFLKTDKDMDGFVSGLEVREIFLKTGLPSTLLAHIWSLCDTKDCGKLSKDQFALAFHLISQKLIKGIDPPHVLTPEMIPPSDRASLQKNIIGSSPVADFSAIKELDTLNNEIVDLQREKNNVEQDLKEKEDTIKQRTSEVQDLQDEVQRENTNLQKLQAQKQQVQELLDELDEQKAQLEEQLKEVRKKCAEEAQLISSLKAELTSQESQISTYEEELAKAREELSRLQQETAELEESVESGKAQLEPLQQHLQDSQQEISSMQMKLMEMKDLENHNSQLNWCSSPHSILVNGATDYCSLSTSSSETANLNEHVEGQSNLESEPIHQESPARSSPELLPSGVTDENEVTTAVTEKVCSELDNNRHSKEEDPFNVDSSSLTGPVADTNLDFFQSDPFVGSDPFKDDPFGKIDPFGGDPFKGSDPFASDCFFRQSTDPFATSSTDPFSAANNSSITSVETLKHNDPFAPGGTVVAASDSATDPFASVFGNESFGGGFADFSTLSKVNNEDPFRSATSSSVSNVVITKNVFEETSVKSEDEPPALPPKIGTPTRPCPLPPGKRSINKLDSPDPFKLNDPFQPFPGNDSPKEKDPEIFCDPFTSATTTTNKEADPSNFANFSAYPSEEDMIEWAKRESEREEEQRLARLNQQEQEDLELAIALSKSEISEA
T2 sequence (Q9UBC2 1-365): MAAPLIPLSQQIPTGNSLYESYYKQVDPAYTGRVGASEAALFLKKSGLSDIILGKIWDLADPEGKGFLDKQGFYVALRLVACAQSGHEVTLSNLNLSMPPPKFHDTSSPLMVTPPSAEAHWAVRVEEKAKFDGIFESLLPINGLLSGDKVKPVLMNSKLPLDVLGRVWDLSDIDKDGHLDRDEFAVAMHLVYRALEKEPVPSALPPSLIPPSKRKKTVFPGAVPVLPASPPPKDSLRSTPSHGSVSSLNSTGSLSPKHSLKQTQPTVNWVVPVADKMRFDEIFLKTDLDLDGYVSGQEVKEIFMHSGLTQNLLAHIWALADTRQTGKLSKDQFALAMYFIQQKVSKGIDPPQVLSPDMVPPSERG
T3 sequence (P42566 1-109): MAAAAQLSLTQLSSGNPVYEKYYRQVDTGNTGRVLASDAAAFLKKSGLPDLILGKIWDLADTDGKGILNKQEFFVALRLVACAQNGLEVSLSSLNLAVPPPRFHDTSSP

B1: Nb E_3 (VHH)
VHH: QVQLQESGGGLVQAGGSLRLSCAASGSIFSINAMGWYRQAPGKQRELVAAITSGGTTNYADSVKGRFTISRDNAKNTLYLQMNSLKPEDTAVYYCNLGGLRNPFGSWGQGTQVTVSS
notes: NPF tripeptide in CDR3, placed differently from that of Nb E_142; also called Nb E_3-His6; source: E. coli XL1-Blue (pHEN6c), periplasmic extract
On to B1, for which the binding result in experiment [1] was “binds”.

B2: Nb E_142 (VHH)
VHH: QVQLQESGGGLVQAGGSLRLSCAASGFISSSSTMGWYRPAPGKQRELVASISSGGTTNYAESVKGRFTISRDNAKNTVYLQMDSLKPEDTAVYYCNMKSMNPFRRYDVWGQGTQVTVSS
notes: NPF(R) tripeptide in CDR3; Printed molecular weight of Nb E_142-His6: 13,683.2; also called Nb E_142-His6; His6-tagged Nb E_142; source: E. coli XL1-Blue (pHEN6c), periplasmic extract; also purified from the periplasmic extract (Ni-NTA-agarose, Sephacryl S-100); not shown: His6, C-terminal, kept
In the case of B2, the binding result in experiment [2], in experiment [5] and in experiment [6] was “binds” each time. The Kd in experiment [3] was around 3000 nM; in experiment [4] it was around 2000 nM.

B3: GFP-FYVE2-desNb E_142 (VHH)
VHH: QVQLQESGGGLVQAGGSLRLSCAASGFISSSSTMGWYRPAPGKQRELVASISSGGTTNYAESVKGRFTIRRDNAKNTVYLQMDSLKPEDTAVYYYNMKSMNPFRRYDVWGQGTQVTVSF
notes: Four glycine residues between the second FYVE domain and the Nb; also called GFP-FYVE2-dNb E_142; 3maj conditionally destabilized Nb E_142; source: HeLa SS6, transiently transfected, in cells; not shown: GFP, N-terminal, kept; tandem FYVE domain (FYVE2), N-terminal, kept
As for B3, the binding result in experiment [7] is “binds”.

B4: Nb E_180 (VHH)
VHH: QVQLQESGGGSVQAGGSLRLSCAASGSIFSVNLMGWYREAPGKATEFVATVTAGGYTNVADSLKDRFTISMDNAKNTVYLQMNNLKPEDTAVYYCNMKSMNPFRRYDVWGQGTQVTVSS
notes: CDR3 identical to that of Nb E_142, 18 amino acid differences from Nb E_142; also called Nb E_180-His6; source: E. coli XL1-Blue (pHEN6c), periplasmic extract
As to B4, the binding result in experiment [1] is reported as “binds”.
